Experimental data reported in patent CN116023492A (XINJIANG YOUMAI BIOTECHNOLOGY CO LTD, dated 2023).

Molecular target: T1, 人PDL1蛋白 (human, UniProt Q9NZQ7 19-239, limits assumed)
T1 construct: Bought recombinant protein; also called human PDL1; B7-H1
Test: non-competitive ELISA, four coating concentrations of PDL1 (1, 0.5, 0.25, 0.125 ug/mL), KA=(n-1)/(nAb'-Ab), mean of 6 values

T1 sequence (Q9NZQ7 19-239 limits assumed): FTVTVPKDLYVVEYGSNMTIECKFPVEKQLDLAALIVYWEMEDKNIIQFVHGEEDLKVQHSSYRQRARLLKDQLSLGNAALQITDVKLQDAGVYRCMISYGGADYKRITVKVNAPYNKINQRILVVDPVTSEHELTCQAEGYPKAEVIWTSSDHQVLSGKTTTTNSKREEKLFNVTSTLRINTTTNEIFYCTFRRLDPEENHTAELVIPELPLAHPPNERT

B1: 抗人PDL1纳米抗体 Nb2 (VHH)
VHH: QVQLQESGGGSVQAGGSLRLSCIASGVDYNSRTDRMAWFRQVPGKEREGVAAIYTYNNRTYYADSVKGRFTISQDIGKNTVYLQMNSLEPEDTATYYCARDWRFSSGMLDKNMYKYWGQGTQVTVSS
notes: Expressed from pMECS in E. coli TG1, Ni-purified; also called 抗PDL1(Nb2)纳米抗体; not shown: C-terminal HA and His tags from the pMECS vector
For B1, the Ka was 933000 M⁻¹.
